Measured values taken from article doi:10.1101/2021.05.31.446396 (bioRxiv, 2021).

Molecular target: the molecule itself
Assay: SAXS

B1: EccCb1 enzyme, full length (Met1-Glu591), M. tuberculosis ESX-1 (enzyme)
chain: MTAEPEVRTLREVVLDQLGTAESRAYKMWLPPLTNPVPLNELIARDRRQPLRFALGIMDEPRRHLQDVWGVDVSGAGGNIGIGGAPQTGKSTLLQTMVMSAAATHSPRNVQFYCIDLGGGGLIYLENLPHVGGVANRSEPDKVNRVVAEMQAVMRQRETTFKEHRVGSIGMYRQLRDDPSQPVASDPYGDVFLIIDGWPGFVGEFPDLEGQVQDLAAQGLAFGVHVIISTPRWTELKSRVRDYLGTKIEFRLGDVNETQIDRITREIPANRPGRAVSMEKHHLMIGVPRFDGVHSADNLVEAITAGVTQIASQHTEQAPPVRVLPERIHLHELDPNPPGPESDYRTRWEIPIGLRETDLTPAHCHMHTNPHLLIFGAAKSGKTTIAHAIARAICARNSPQQVRFMLADYRSGLLDAVPDTHLLGAGAINRNSASLDEAVQALAVNLKKRLPPTDLTTAQLRSRSWWSGFDVVLLVDDWHMIVGAAGGMPPMAPLAPLLPAAADIGLHIIVTCQMSQAYKATMDKFVGAAFGSGAPTMFLSGEKQEFPSSEFKVKRRPPGQAFLVSPDGKEVIQAPYIEPPEEVFAAPPSAG
stoichiometry N: 12
